# Experimental data published in patent US20250236653A1 (published 2025).
# Substitutions are numbered along the chain they refer to. Where two headings read alike, the source gives them in different places.
# T1: human OX40 (human, UniProt P43489 29-277)
# T1 chain: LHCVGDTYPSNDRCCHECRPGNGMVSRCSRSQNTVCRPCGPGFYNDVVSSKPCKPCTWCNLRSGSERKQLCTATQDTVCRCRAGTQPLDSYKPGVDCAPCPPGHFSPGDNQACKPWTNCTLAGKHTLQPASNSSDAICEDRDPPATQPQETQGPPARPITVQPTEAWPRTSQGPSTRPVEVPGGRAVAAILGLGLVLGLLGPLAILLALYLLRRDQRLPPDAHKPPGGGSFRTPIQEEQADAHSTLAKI
# T2: cynomolgus monkey OX40 (cynomolgus monkey)
# T2 chain: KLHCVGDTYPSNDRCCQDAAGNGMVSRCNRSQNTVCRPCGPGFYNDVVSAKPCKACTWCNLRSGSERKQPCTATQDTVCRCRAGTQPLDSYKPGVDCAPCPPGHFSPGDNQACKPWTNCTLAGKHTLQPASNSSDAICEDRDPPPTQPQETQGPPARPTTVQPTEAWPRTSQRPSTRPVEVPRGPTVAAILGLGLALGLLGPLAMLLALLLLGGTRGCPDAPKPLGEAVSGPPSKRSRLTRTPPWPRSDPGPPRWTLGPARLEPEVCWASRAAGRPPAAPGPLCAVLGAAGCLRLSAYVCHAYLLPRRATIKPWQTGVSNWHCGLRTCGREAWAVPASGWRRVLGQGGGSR
# B1: mono-mut23-20E5 (Fc fusion)
# chain: IWELKKDVYVVELDWYPDAPGEMVVLTCDTPEEDGITWTLDQSSEVLGSGKTLTIQVKEFGDAGQYTCHKGGEVLSHSLLLLHKKEDGIWSTDILKDQKEPKNKTFLRCEAKNYSGRFTCWWLTTISTDLTFSVKSSRGSSDPQGVTCGAATLSAERVRGDNKEYEYSVECQEDSACPAAEESLPIEVMVDAVHKLKYENYTSSFFIRDIIKPDPPKNLQLKPLKNSRQVEVSWEYPDTWSTPHSYFSLTFSVQVQGKSKREKKDRVFTDKTSATVICRKNASISVRAQDRYYSSSWSEWASVPCSGGGGSGGGGSGGGGSGGGGSGGGGSRNLPVATPDPGMFPCLHHSQNLLRAVSNMLQKARQTLEFSPCTSEEIDHEDITKDKTSTVEACLPLELTKNESCLNSRETSFITNGSCLASRKTSFMMALCLSSIYEDLKMYQVEFKTMNAKLLMDPKRQIFLDQNMLAVIDELMQALNFNSETVPQKSSLEEPDFYKTAIKLCILLHAFRIRAVTIDRVMSYLNASGGGGSGGGGSEPKSSDKTHTCPPCPAPEFEGGPSVFLFPPKPKDTLMISRTPEVTCVVVDVSHEDPEVKFNWYVDGVEVHNAKTKPREEQYNSTYRVVSVLTVLHQDWLNGKEYKCKVSNKALPASIEKTISKAKGQPREPQVCTLPPSRDELTKNQVSLSCAVKGFYPSDIAVEWESNGQPENNYKTTPPVLDSDGSFFLVSKLTVDKSRWQQGNVFSCSVMHEALHNHYTQKSLSLSPG
# heavy: QVQLVQSGAEVKKPGASVKVSCKASGYTFTSYVMHWVRQAPGQRLEWIGYINPYNDGTKYNEKFKGRATLTSDKSASTAYMELSSLRSEDTAVYYCANYYGSSLSMDYWGQGTLVTVSSASTKGPSVFPLAPSSKSTSGGTAALGCLVKDYFPEPVTVSWNSGALTSGVHTFPAVLQSSGLYSLSSVVTVPSSSLGTQTYICNVNHKPSNTKVDKKVEPKSCDKTHTCPPCPAPEFEGGPSVFLFPPKPKDTLMISRTPEVTCVVVDVSHEDPEVKFNWYVDGVEVHNAKTKPREEQYNSTYRVVSVLTVLHQDWLNGKEYKCKVSNKALPASIEKTISKAKGQPREPQVYTLPPCRDELTKNQVSLWCLVKGFYPSDIAVEWESNGQPENNYKTTPPVLDSDGSFFLYSKLTVDKSRWQQGNVFSCSVMHEALHNHYTQKSLSLSPG
# light: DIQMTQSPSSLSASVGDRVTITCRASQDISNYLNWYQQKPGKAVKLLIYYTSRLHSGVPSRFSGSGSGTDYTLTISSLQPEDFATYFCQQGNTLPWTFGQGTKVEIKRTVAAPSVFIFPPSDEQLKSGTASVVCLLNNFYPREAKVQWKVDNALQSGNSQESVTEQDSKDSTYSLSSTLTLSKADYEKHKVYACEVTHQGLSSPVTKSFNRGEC
# B2: mono-mut23-12H3_V3 (Fc fusion)
# chain: B1 chain
# heavy: QVQLVQSGAEVKKPGSSVKVSCKASGYTFKDYTMHWVRQAPGQGLEWIGGIYPNQGGSTYNQNFKDRVTLTADKSTSTAYMELSSLRSEDTAVYYCARMGYHGPHLDFDVWGQGTTVTVSSASTKGPSVFPLAPSSKSTSGGTAALGCLVKDYFPEPVTVSWNSGALTSGVHTFPAVLQSSGLYSLSSVVTVPSSSLGTQTYICNVNHKPSNTKVDKKVEPKSCDKTHTCPPCPAPEFEGGPSVFLFPPKPKDTLMISRTPEVTCVVVDVSHEDPEVKFNWYVDGVEVHNAKTKPREEQYNSTYRVVSVLTVLHQDWLNGKEYKCKVSNKALPASIEKTISKAKGQPREPQVYTLPPCRDELTKNQVSLWCLVKGFYPSDIAVEWESNGQPENNYKTTPPVLDSDGSFFLYSKLTVDKSRWQQGNVFSCSVMHEALHNHYTQKSLSLSPG
# light: DIQMTQSPSSLSASVGDRVTITCKASQDVGAAVAWYQQKPGKAPKLLIYWASTRHTGVPSRFSGSGSGTDFTLTISSLQPEDFATYYCQQYINYPLTFGGGTKVEIKRTVAAPSVFIFPPSDEQLKSGTASVVCLLNNFYPREAKVQWKVDNALQSGNSQESVTEQDSKDSTYSLSSTLTLSKADYEKHKVYACEVTHQGLSSPVTKSFNRGEC
# B3: mono-mut23-12H3_V8 (Fc fusion)
# chain: B1 chain
# heavy: B2 heavy with M99I
# light: B2 light
# B4: mono-mut23-12H3 (Fc fusion)
# chain: B1 chain
# heavy: B2 heavy with Q55N
# light: B2 light
# Assays:
# Test in all cases: flow cytometry
# human OX40 [1] = molecular target: T1, human OX40
# human OX40 [2] = molecular target: T1, human OX40
# cynomolgus monkey OX40 = molecular target: T2, cynomolgus monkey OX40
# human OX40 [3] = molecular target: T1, human OX40
binder,measurement,setting,value
B1,EC50,human OX40 [1],59.2 nM
same,EC50,human OX40 [2],92.6 nM
same,EC50,cynomolgus monkey OX40,111 nM
B2,EC50,human OX40 [3],839 nM
B3,EC50,human OX40 [3],1910 nM
B4,EC50,human OX40 [1],15.6 nM
same,EC50,cynomolgus monkey OX40,19.2 nM
